Source: patent US5677163

Columns and labels:
[1] = target: VLKpNA
[2] = target: sAAPLpNA
[3] = target: sAAApNA
[4] = target: KAAFpNA
[5] = target: sAAPFpNA
[6] = target: sAAPMpNA

| Hydrolysis Rate (A405 /min) [1] | Hydrolysis Rate (A405 /min) [2] | Hydrolysis Rate (A405 /min) [3] | Hydrolysis Rate (A405 /min) [4] | Hydrolysis Rate (A405 /min) [5] | Hydrolysis Rate (A405 /min) [6] | Substance |
| --- | --- | --- | --- | --- | --- | --- |
| 0.0017 A405/min | 0.45 A405/min | 0.011 A405/min | 0.002 A405/min | 0.83 A405/min | 0.25 A405/min | B. amyloliquefaciens subtilisin (protease) (enzyme) |
| 0.0003 A405/min | 0.23 A405/min | 0.176 A405/min | 0.08 A405/min | 1.15 A405/min | 0.75 A405/min | B. lentus protease (Savinase) (enzyme) |
| 0.0008 A405/min | 0.58 A405/min | 0.014 A405/min | 0.006 A405/min | 0.87 A405/min | 0.19 A405/min | LG-12 protease (Bacillus sp. strain LG-12 subtilisin, product of the sprC gene) (enzyme) |
